In patent US20110105394A1 (Novo Nordisk, published 2011):
Bridges are numbered along the chain shown (N, C = ends). Where no end group is shown, it is not given here. The star is where a group is joined. X2 = (S)‑4‑Carboxy‑4‑(19-carboxynonadecanoylamino)butyryl, O=C(O)CCCCCCCCCCCCCCCCCCC(=O)N[C@@H](CCC(=O)*)C(=O)O; C20 diacid = O=C(O)CCCCCCCCCCCCCCCCCCC(=O)*

B1: N-alpha-(19-carboxynonadecanoyl)-Glu-Glu-Arg-[Glu1,Glu14,His17,Glu31]-pramlintide (peptide)
peptide: {C20 diacid}-EERECNTATCATQRLAEFLHHSSNNFGPILPPTEVGSNTY-NH2
modifications: disulfide 5-10
SMILES: CC[C@H](C)[C@H](NC(=O)[C@@H]1CCCN1C(=O)CNC(=O)[C@H](Cc1ccccc1)NC(=O)[C@H](CC(N)=O)NC(=O)[C@H](CC(N)=O)NC(=O)[C@H](CO)NC(=O)[C@H](CO)NC(=O)[C@H](Cc1c[nH]cn1)NC(=O)[C@H](Cc1c[nH]cn1)NC(=O)[C@H](CC(C)C)NC(=O)[C@H](Cc1ccccc1)NC(=O)[C@H](CCC(=O)O)NC(=O)[C@H](C)NC(=O)[C@H](CC(C)C)NC(=O)[C@H](CCCNC(=N)N)NC(=O)[C@H](CCC(N)=O)NC(=O)[C@@H](NC(=O)[C@H](C)NC(=O)[C@@H]1CSSC[C@H](NC(=O)[C@H](CCC(=O)O)NC(=O)[C@H](CCCNC(=N)N)NC(=O)[C@H](CCC(=O)O)NC(=O)[C@H](CCC(=O)O)NC(=O)CCCCCCCCCCCCCCCCCCC(=O)O)C(=O)N[C@@H](CC(N)=O)C(=O)N[C@@H]([C@@H](C)O)C(=O)N[C@@H](C)C(=O)N[C@@H]([C@@H](C)O)C(=O)N1)[C@@H](C)O)C(=O)N[C@@H](CC(C)C)C(=O)N1CCC[C@H]1C(=O)N1CCC[C@H]1C(=O)N[C@H](C(=O)N[C@@H](CCC(=O)O)C(=O)N[C@H](C(=O)NCC(=O)N[C@@H](CO)C(=O)N[C@@H](CC(N)=O)C(=O)N[C@H](C(=O)N[C@@H](Cc1ccc(O)cc1)C(N)=O)[C@@H](C)O)C(C)C)[C@@H](C)O
B2: N-alpha-[(S)-4-Carboxy-4-(19-carboxynonadecanoylamino)butyryl]-Arg-His[Arg1,His17]-pramlintide (peptide)
peptide: X2-RHRCNTATCATQRLANFLHHSSNNFGPILPPTNVGSNTY-NH2
modifications: disulfide 4-9
SMILES: CC[C@H](C)[C@H](NC(=O)[C@@H]1CCCN1C(=O)CNC(=O)[C@H](Cc1ccccc1)NC(=O)[C@H](CC(N)=O)NC(=O)[C@H](CC(N)=O)NC(=O)[C@H](CO)NC(=O)[C@H](CO)NC(=O)[C@H](Cc1c[nH]cn1)NC(=O)[C@H](Cc1c[nH]cn1)NC(=O)[C@H](CC(C)C)NC(=O)[C@H](Cc1ccccc1)NC(=O)[C@H](CC(N)=O)NC(=O)[C@H](C)NC(=O)[C@H](CC(C)C)NC(=O)[C@H](CCCNC(=N)N)NC(=O)[C@H](CCC(N)=O)NC(=O)[C@@H](NC(=O)[C@H](C)NC(=O)[C@@H]1CSSC[C@H](NC(=O)[C@H](CCCNC(=N)N)NC(=O)[C@H](Cc2c[nH]cn2)NC(=O)[C@H](CCCNC(=N)N)NC(=O)CC[C@H](NC(=O)CCCCCCCCCCCCCCCCCCC(=O)O)C(=O)O)C(=O)N[C@@H](CC(N)=O)C(=O)N[C@@H]([C@@H](C)O)C(=O)N[C@@H](C)C(=O)N[C@@H]([C@@H](C)O)C(=O)N1)[C@@H](C)O)C(=O)N[C@@H](CC(C)C)C(=O)N1CCC[C@H]1C(=O)N1CCC[C@H]1C(=O)N[C@H](C(=O)N[C@@H](CC(N)=O)C(=O)N[C@H](C(=O)NCC(=O)N[C@@H](CO)C(=O)N[C@@H](CC(N)=O)C(=O)N[C@H](C(=O)N[C@@H](Cc1ccc(O)cc1)C(N)=O)[C@@H](C)O)C(C)C)[C@@H](C)O
B3: N-alpha-[(S)-4-Carboxy-4-(19-carboxynonadecanoylamino)butyryl]-His-Arg-[His1,His17]-pramlintide (peptide)
peptide: HRHCNTATCATQRLANFLHHSSNNFGPILPPTNVGSNTY-NH2
modifications: disulfide 4-9; not fully specified (N-terminus); printed as N-alpha-[(S)-4-Carboxy-4-(19-carboxynonadecanoylamino)butyryl]-His-Arg-[His1,His17]-pramlintide
B4: N-alpha-[(S)-4-Carboxy-4-(19-carboxynonadecanoylamino)butyryl]-His-His-[Arg1,His17]-pramlintide (peptide)
peptide: HHRCNTATCATQRLANFLHHSSNNFGPILPPTNVGSNTY-NH2
modifications: disulfide 4-9; not fully specified (N-terminus); printed as N-alpha-[(S)-4-Carboxy-4-(19-carboxynonadecanoylamino)butyryl]-His-His-[Arg1,His17]-pramlintide
B5: N-alpha-[19-carboxynonadecanoyl]-Glu-Lys-[Arg1,His17]-pramlintide (peptide)
peptide: {C20 diacid}-EKRCNTATCATQRLANFLHHSSNNFGPILPPTNVGSNTY-NH2
modifications: disulfide 4-9
SMILES: CC[C@H](C)[C@H](NC(=O)[C@@H]1CCCN1C(=O)CNC(=O)[C@H](Cc1ccccc1)NC(=O)[C@H](CC(N)=O)NC(=O)[C@H](CC(N)=O)NC(=O)[C@H](CO)NC(=O)[C@H](CO)NC(=O)[C@H](Cc1c[nH]cn1)NC(=O)[C@H](Cc1c[nH]cn1)NC(=O)[C@H](CC(C)C)NC(=O)[C@H](Cc1ccccc1)NC(=O)[C@H](CC(N)=O)NC(=O)[C@H](C)NC(=O)[C@H](CC(C)C)NC(=O)[C@H](CCCNC(=N)N)NC(=O)[C@H](CCC(N)=O)NC(=O)[C@@H](NC(=O)[C@H](C)NC(=O)[C@@H]1CSSC[C@H](NC(=O)[C@H](CCCNC(=N)N)NC(=O)[C@H](CCCCN)NC(=O)[C@H](CCC(=O)O)NC(=O)CCCCCCCCCCCCCCCCCCC(=O)O)C(=O)N[C@@H](CC(N)=O)C(=O)N[C@@H]([C@@H](C)O)C(=O)N[C@@H](C)C(=O)N[C@@H]([C@@H](C)O)C(=O)N1)[C@@H](C)O)C(=O)N[C@@H](CC(C)C)C(=O)N1CCC[C@H]1C(=O)N1CCC[C@H]1C(=O)N[C@H](C(=O)N[C@@H](CC(N)=O)C(=O)N[C@H](C(=O)NCC(=O)N[C@@H](CO)C(=O)N[C@@H](CC(N)=O)C(=O)N[C@H](C(=O)N[C@@H](Cc1ccc(O)cc1)C(N)=O)[C@@H](C)O)C(C)C)[C@@H](C)O
B6: N-alpha-[19-carboxynonadecanoyl]-Glu-Lys-Arg-[His17]-pramlintide (peptide)
peptide: {C20 diacid}-EKRKCNTATCATQRLANFLHHSSNNFGPILPPTNVGSNTY-NH2
modifications: disulfide 5-10
SMILES: CC[C@H](C)[C@H](NC(=O)[C@@H]1CCCN1C(=O)CNC(=O)[C@H](Cc1ccccc1)NC(=O)[C@H](CC(N)=O)NC(=O)[C@H](CC(N)=O)NC(=O)[C@H](CO)NC(=O)[C@H](CO)NC(=O)[C@H](Cc1c[nH]cn1)NC(=O)[C@H](Cc1c[nH]cn1)NC(=O)[C@H](CC(C)C)NC(=O)[C@H](Cc1ccccc1)NC(=O)[C@H](CC(N)=O)NC(=O)[C@H](C)NC(=O)[C@H](CC(C)C)NC(=O)[C@H](CCCNC(=N)N)NC(=O)[C@H](CCC(N)=O)NC(=O)[C@@H](NC(=O)[C@H](C)NC(=O)[C@@H]1CSSC[C@H](NC(=O)[C@H](CCCCN)NC(=O)[C@H](CCCNC(=N)N)NC(=O)[C@H](CCCCN)NC(=O)[C@H](CCC(=O)O)NC(=O)CCCCCCCCCCCCCCCCCCC(=O)O)C(=O)N[C@@H](CC(N)=O)C(=O)N[C@@H]([C@@H](C)O)C(=O)N[C@@H](C)C(=O)N[C@@H]([C@@H](C)O)C(=O)N1)[C@@H](C)O)C(=O)N[C@@H](CC(C)C)C(=O)N1CCC[C@H]1C(=O)N1CCC[C@H]1C(=O)N[C@H](C(=O)N[C@@H](CC(N)=O)C(=O)N[C@H](C(=O)NCC(=O)N[C@@H](CO)C(=O)N[C@@H](CC(N)=O)C(=O)N[C@H](C(=O)N[C@@H](Cc1ccc(O)cc1)C(N)=O)[C@@H](C)O)C(C)C)[C@@H](C)O

target: T1, Amylin 3(a) receptor (human calcitonin receptor (CTa) with RAMP-3) (human) (UniProt P30988); experiment: cell-based or functional assay
T1 sequence (looked up) 1: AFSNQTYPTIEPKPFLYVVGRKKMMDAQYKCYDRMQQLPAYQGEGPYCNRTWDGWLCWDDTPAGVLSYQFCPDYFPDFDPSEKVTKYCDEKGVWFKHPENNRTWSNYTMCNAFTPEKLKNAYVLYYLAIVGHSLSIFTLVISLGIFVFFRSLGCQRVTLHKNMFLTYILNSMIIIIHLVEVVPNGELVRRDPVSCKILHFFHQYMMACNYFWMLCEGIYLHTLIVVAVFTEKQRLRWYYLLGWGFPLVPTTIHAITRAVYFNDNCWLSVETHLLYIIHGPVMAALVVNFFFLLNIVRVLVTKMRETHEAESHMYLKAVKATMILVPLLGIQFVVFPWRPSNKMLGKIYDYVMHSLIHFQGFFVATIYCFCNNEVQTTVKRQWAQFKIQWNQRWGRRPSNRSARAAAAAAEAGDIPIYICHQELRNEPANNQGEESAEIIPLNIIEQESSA
T1 sequence (looked up) 2: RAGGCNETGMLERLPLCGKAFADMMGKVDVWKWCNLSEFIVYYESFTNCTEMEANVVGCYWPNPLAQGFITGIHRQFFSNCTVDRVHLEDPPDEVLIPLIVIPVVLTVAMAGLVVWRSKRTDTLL

Binder	Potency Luciferase
B1	0.9 nM

target: T2, Amylin 3(a) receptor (human calcitonin receptor (CTa) with RAMP-3) (human, UniProt P30988 25-474; O60896 24-148, limits assumed); experiment: cell-based or functional assay
T2 sequence (looked up) 1: T1 sequence (looked up) 1
T2 sequence (looked up) 2: T1 sequence (looked up) 2

Binder	Potency Luciferase
B2	0.1 nM
B3	0.05 nM
B4	0.09 nM
B5	0.07 nM
B6	0.06 nM
